Reference: patent US20090131309A1, “ICA512 COUPLES INSULIN SECRETION AND GENE EXPRESSION IN BETA-CELLS” (Technische Universität Dresden Medizinizche Fakultät Carl …, priority 2004, published 2009)
Blank lines part the entries; values can stand above or below the molecule they belong to. Starred links: 1 amine or outer side, 2 acyl side, 3 side chain; linkers in the order of their positions; H or OH if unused. Positions of bridges follow the written chain, without caps; N, C: chain ends. Non-standard residues stand in square brackets, D forms with d. Residues, ends and D or L forms follow the SMILES beside them. Chains are numbered I, II in the order given. Actinocin(9to1) = Cc1c2oc3c(C)ccc(C(=O)[*:1])c3nc-2c(C(=O)[*:2])c(N)c1=O; NMeV = CN[C@H](C(=O)O)C(C)C; Sar = CNCC(=O)O

What was measured:
INS-1 cells = test: Uridine incorporation in INS-1 cells; assay type: cell-based, rat; conditions: 5 μg/ml actinomycin D; ICA512-CCF-GFP-transfected INS-1 cells
pro-ICA512 = conditions: cells stimulated for 2 hours; reference 8; cited from earlier work
[1] = molecular target: T1, in-vitro transcribed and translated [^35S]-labeled PIASy (mouse, UniProt Q9JM05 1-507, [35S]-methionine label); test: GST pull-down, SDS-PAGE and autoradiography
T1 construct: The mouse PIASy cDNA in pcDNA3.1 is the only untagged PIASy construct described; also called [^35S]-PIASy; [^35S]-methionine-PIASy
T1 sequence (looked up): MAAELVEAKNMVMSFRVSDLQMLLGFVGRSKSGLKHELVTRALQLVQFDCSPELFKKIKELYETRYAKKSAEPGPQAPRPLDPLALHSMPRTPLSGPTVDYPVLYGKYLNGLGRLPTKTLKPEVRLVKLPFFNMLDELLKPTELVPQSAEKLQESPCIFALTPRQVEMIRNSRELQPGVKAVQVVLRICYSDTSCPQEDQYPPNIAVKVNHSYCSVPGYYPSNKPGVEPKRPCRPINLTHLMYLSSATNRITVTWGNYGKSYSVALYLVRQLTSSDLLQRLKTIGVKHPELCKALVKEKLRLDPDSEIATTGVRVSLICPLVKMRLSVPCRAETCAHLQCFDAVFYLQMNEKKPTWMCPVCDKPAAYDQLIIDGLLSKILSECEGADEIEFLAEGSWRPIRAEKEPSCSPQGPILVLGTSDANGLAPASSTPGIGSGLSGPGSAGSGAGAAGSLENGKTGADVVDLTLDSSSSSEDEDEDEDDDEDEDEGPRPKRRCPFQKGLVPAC

STAT5b [2] = molecular target: T2, STAT5b (rat, UniProt P52632 1-786); test: cell-based or functional assay
T2 sequence (looked up): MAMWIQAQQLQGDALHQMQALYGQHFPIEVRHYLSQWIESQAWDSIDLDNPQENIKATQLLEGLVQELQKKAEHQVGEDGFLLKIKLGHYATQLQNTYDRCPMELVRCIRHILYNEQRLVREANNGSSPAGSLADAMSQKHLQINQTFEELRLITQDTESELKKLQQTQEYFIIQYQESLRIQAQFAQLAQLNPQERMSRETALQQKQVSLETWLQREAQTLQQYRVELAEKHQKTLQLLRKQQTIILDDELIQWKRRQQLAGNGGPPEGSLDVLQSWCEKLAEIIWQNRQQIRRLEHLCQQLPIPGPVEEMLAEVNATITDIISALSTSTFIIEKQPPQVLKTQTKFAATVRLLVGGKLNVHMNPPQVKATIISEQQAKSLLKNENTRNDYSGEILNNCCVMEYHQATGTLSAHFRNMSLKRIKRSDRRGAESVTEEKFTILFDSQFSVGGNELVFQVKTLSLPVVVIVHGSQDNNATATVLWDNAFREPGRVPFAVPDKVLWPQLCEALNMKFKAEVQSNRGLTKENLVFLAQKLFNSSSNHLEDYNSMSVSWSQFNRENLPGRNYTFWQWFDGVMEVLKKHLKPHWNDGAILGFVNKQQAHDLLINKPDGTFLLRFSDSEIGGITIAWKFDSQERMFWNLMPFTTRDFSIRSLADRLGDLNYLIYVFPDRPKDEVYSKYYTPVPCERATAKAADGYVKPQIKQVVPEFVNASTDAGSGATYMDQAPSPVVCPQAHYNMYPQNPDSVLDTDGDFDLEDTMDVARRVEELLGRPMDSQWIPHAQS

PIASy-YFP = molecular target: T3, PIASy-YFP (mouse, UniProt Q9JM05 2-507); test: FRET by acceptor photobleaching in nuclei of co-transfected INS-1 cells
T3 construct: whole, on cells; Transiently expressed in INS-1 cells; nuclear; not shown: YFP encoded by pEYFP-N2 (Clontech), fused at the C-terminus
T3 sequence (looked up): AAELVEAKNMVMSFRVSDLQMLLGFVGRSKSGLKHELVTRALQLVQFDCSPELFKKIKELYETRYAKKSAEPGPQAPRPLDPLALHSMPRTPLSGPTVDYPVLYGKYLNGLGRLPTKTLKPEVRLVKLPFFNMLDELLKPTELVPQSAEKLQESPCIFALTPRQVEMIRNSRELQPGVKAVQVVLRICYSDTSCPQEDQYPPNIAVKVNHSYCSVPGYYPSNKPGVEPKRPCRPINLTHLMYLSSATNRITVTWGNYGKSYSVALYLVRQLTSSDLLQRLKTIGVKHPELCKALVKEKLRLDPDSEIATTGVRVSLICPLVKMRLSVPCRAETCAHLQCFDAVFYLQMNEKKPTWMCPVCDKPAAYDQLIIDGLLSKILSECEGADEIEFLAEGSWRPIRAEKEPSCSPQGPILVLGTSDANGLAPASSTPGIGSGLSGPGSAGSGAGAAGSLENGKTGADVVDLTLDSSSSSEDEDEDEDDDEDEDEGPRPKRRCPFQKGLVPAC
Description: FRET analysis. INS-1 cells transiently co-transfected with ICA512-CFP, PIASy-YFP, Ism4-YFP and Ism4-CFP were incubated either in resting or stimulating buffer for 90 minutes. Following fixation in 2% paraformahaldehyde, cells were imaged with an inverted […] confocal microscope (Zeiss) using a Plan-Apochromat 100× 1.4 oil DIC objective, The pinhole diameter was set between 1.0 and 1.25 Airy-Unit. […] 458 nm and 514 nm laser lines were used to excite CFP and YFP, respectively. CFP images were acquired with a 458 nm dichroic mirror and a bandpass filter of 475-495, while YFP fluorescence was collected with a 514 nm dichroic mirror and a bandpass filter of 530-600 nm. FRET was assessed by measuring the dequenching of CFP during the photobleaching of YFP performed with the 514 nm laser line at 70% power and for six cycles of 30 sec. each. Mean fluorescence of CFP and YFP were determined by tracing the nuclear perimeter of the cell using the “region of interest” software function. Fluorescence intensity of CFP after photobleaching was normalized to 100% at time 0. In each experiment, 6-9 fields for each slide were photobleached and recorded. Each experiment was independently performed two times.

STAT5b [3] = molecular target: T2, STAT5b; test: anti-GFP immunoprecipitation from total INS-1 extracts, immunoblot for STAT5b
Description: Immunoprecipitation. INS-1 cells were transiently transfected With one or more of the following constructs: GFP, ICA512-CCF-GFP, ICA512-CCF(K/A⁷⁵⁴)-GFP, SUMO-1 and HA-SUMO-1. Anti-GFP IgGs were used for immunoprecipitations from total or cytosolic extracts. Immunoprecipitates were immunoblotted with anti-STAT5b, anti-PY-STAT5, anti-GFP or anti-HA antibodies. 600 μg and 200 μg protein were used as starting material for immunopreciptation of sumoylated ICA512 and STAT5, respectively.

Molecule: Cc1c2oc3c(C)ccc(C(=O)N[C@@H]4C(=O)N[C@H](C(C)C)C(=O)N5CCC[C@H]5C(=O)N(C)CC(=O)N(C)[C@@H](C(C)C)C(=O)O[C@@H]4C)c3nc-2c(C(=O)N[C@@H]2C(=O)N[C@H](C(C)C)C(=O)N3CCC[C@H]3C(=O)N(C)CC(=O)N(C)[C@@H](C(C)C)C(=O)O[C@@H]2C)c(N)c1=O [actinomycin D, reference compound] (I: T[dV]P[Sar][NMeV] / II: T[dV]P[Sar][NMeV]; ester I:1-I:C, II:1-II:C; linker I:N-II:N via Actinocin(9to1))
- effect on the increase of 3H-uridine incorporation (INS-1 cells): abolished
- rapid induction of pro-ICA512 (pro-ICA512): did not prevent the rapid induction of pro-ICA512

B1: GST-ICA512 (800-979) (other)
chain: ESGCTVIVMLTPLVEDGVKQCDRYWPDEGASLYHVYEVNLVSEHIWCEDFLVRSFYLKNVQTQETRTLTQFHFLSWPAEGTPASTRPLLDFRRKVNKCYRGRSCPIIVHCSDGAGRTGTYILIDMVLNRMAKGVKEIDIAATLEHVRDQRPGLVRSKDQFEFALTAVAEEVNAILKALPQ
notes: Bacterially expressed; not shown: glutathione S-transferase (GST) fusion partner
- binding result [1]: no binding

Results, then the molecule that gave them:

- luciferase activity of the STAT reporter 8GLE-CAS-FL in hGH-stimulated INS-1 cells, relative to GFP cells (STAT5b [2]): > 500%
B2: ICA512-CCF-GFP (other, not shown: large carriers)
chain: SQFSDAAQASPSSHSSTPSWCEEPAQANMDISTGHMILAYMEDHLRNRDRLAKEWQALCAYQAEPNTCATAQGEGNIKKNRHPDFLPYDHARIKLKVESSPSRSDYINASPIIEHDPRMPAYIATQGPLSHTIADFWQMVWESGCTVIVMLTPLVEDGVKQCDRYWPDEGASLYHVYEVNLVSEHIWCEDFLVRSFYLKNVQTQETRTLTQFHFLSWPAEGTPASTRPLLDFRRKVNKCYRGRSCPIIVHCSDGAGRTGTYILIDMVLNRMAKGVKEIDIAATLEHVRDQRPGLVRSKDQFEFALTAVAEEVNAILKALPQ

- fold increase of the recovery of ICA512-CFP signal after photobleaching of PIASy-YFP (FRET), stimulated against resting cells (PIASy-YFP): ~5 fold
B3: ICA512-CFP (other)
chain: SQFSDAAQASPSSHSSTPSWCEEPAQANMDISTGHMILAYMEDHLRNRDRLAKEWQALCAYQAEPNTCATAQGEGNIKKNRHPDFLPYDHARIKLKVESSPSRSDYINASPIIEHDPRMPAYIATQGPLSHTIADFWQMVWESGCTVIVMLTPLVEDGVKQCDRYWPDEGASLYHVYEVNLVSEHIWCEDFLVRSFYLKNVQTQETRTLTQFHFLSWPAEGTPASTRPLLDFRRKVNKCYRGRSCPIIVHCSDGAGRTGTYILIDMVLNRMAKGVKEIDIAATLEHVRDQRPGLVRSKDQFEFALTAVAEEVNAILKALPQ
notes: The FRET was read in the nucleus, so the partner of PIASy-YFP there is the cleaved cytoplasmic fragment ICA512-CCF-CFP; Its N-terminal limit in cells is not determined; also called ICA512-CCF-CFP (its cleaved cytoplasmic fragment in the nucleus); not shown: CFP encoded by pECFP-N1 (Clontech), fused at the C-terminus

- binding result (STAT5b [3]): binds
B4: ICA512-CCF(K/A^754)-GFP (other)
chain: SQFSDAAQASPSSHSSTPSWCEEPAQANMDISTGHMILAYMEDHLRNRDRLAKEWQALCAYQAEPNTCATAQGEGNIKKNRHPDFLPYDHARIKLAVESSPSRSDYINASPIIEHDPRMPAYIATQGPLSHTIADFWQMVWESGCTVIVMLTPLVEDGVKQCDRYWPDEGASLYHVYEVNLVSEHIWCEDFLVRSFYLKNVQTQETRTLTQFHFLSWPAEGTPASTRPLLDFRRKVNKCYRGRSCPIIVHCSDGAGRTGTYILIDMVLNRMAKGVKEIDIAATLEHVRDQRPGLVRSKDQFEFALTAVAEEVNAILKALPQ
notes: Expressed in INS-1 cells; not shown: GFP encoded by pEGFP-N1 (Clontech), fused at the C-terminus
